Measurements published in a protein production outcome set (Wang et al. 2014).

Assay: label from the status in PepcDB records

Sequence | protein production
MSFPLIFERSRKGRRGLKLVKAVPKAEDLIPKEHLREVPPRLPEVDELTLVRHYTGLSRRQVGVDTTFYPLGSCTMKYNPKLHEEAARLFADLHPYQDPRTAQGALRLMWELGEYLKALTGMDAITLEPAAGAHGELTGILIIRAYHEDRGEGRTRRVVLVPDSAHGSNPATASMAGYQVREIPSGPEGEVDLEALKRELGPHVAALMLTNPNTLGLFERRILEISRLCKEAGVQLYYDGANLNAIMGWARPGDMGFDVVHLNLHKTFTVPHGGGGPGSGPVGVKAHLAPYLPVPLVERGEEGFYLDFDRPKSIGRVRSFYGNFLALVRAWAYIRTLGLEGLKKAAALAVLNARYLKELLKEKGYRVPYDGPSMHEFVAQPPEGFRALDLAKGLLELGFHPPTVYFPLIVKEALMVEPTETEAKETLEAFAEAMGALLKKPKEWLENAPYSTPVRRLDELRANKHPKLTYFDEG | not failed
IGNVQYYLGFNLYDSRTKITKYDNEVGLLGKDSDDNLIYRKGMELGEIWGYTTDRLYTTEDFDSQGKLKNNIPKVEGYNPNPGDILYVDFDGNGIINNGKNTSNEPGDTRIIGNDTRRYQYGIRGGATWKGISLSFILQGVGKRDLWLMNELFYPHYDAYSTLFDSQLNYWTPEHTNSYFPRLYEKAEGNTKANQKPQTRFLQNGAYLSIRNISLSYTFPIKLIKPLGITNLSVFFGGENLFTFDHLPKGIDAERVVTDNLGQRGFTYPYMRQFSFGINLSL | failed
TIDLRMQQYAEEAMVKQMKEVLQPIFDKEKRGRSYAPFSRDITSDEQRSILLRAMKQTDRWREMKKAGISESEIRASFNKKRKMQVWNWRGTIDTVMSPLDSIKYLKGILRTGFMAMNPHNGHIKAYVGGINFRNFQYDMVSQGRRQVGSTIKPFLYSLSMLEGISPCDEMLHVSQTLFTESGKAWTPKNTGARRTGEMVSIKWGLQNSSNWVTAYLMGRTSPYTFVRLLRSYGLSGYLEPSLSICLGTPDVSVQEMVSAYTTFVNKGIRVNPLPITRIEDQYGNVVAQFSPNMVEVLPPDAAYKMLYMLKSVVDGGTGSRLRYRYGFKLDMGGKTGTTQNNSDGWFVGFTPSLVAGCWVGGEDRSVHFDSMSNGQGAASALPIFAEFLKRVYADPKLGYTTE | failed
MARPAYRLLAYSLWDLIPIAMAVAHFAFVLWLVLDFHALSWWVILPAALLYAVSLSWSINSISHNQIHNAYFTPGWMNRGFDLLLSVTIGFSQTLYRDIHNRHHRGNSDLPDANGKTVDPLSIYLHGKDGQPDNPWAYTFLSFFRDDPKEIYQEMQRKRPDDARWVKVEIGVTVAFYLALALYDWHAVLVLLPFWYLGQSLSSLNGYYEHLGGNPDLPIAWGVSSYSPLYNLIWMNNGYHAEHHYRPKMHWTKVKAFHREIREQQRAAGVKVIPVSHGLGFLVAHRKV | failed
MVIDLAVDCQRQAAVLRQQRLRTARRVDDGQTLVHQDGTGIDVHAAPVRPAMALPLRTFQGLPAQGLQVVAGLQAEDTEDGTHGNTPGKVVMGGRRINTVQDITHKKNPHRPMRVFWKLGVCVGTSPSRRPASAAHDYSRADCCGDWRWRRWTETMSWADRIPLSAATQLLRWQPSRAGKPGIPRPPRDRGRVARIMSPPSSEASAMTPRIGRLAFAALIPLVLLQGCSTTAPRTEPAKLRQLEQTAADGSFDSIWEVASQLESRNDPRAIGWYERAAATTPWTFRNALAELALGRIWASGTLTHADSPYIDQRAALRASPRKGERWYLAAAMHGNPYAIRELAKFHRERGEAAAALRWDLRVAIYERAASGPSGLPAAIAPRDGDIHPLVRDIQRRARGGDAEAQVDLGALYEKGMGGMNRDGAEALRWYRRAADQGNVYGQYFYALLLGRGSSGVTRDEETAAIWFAKASAQRFYIADASHWREAIKPPFWTFD | failed
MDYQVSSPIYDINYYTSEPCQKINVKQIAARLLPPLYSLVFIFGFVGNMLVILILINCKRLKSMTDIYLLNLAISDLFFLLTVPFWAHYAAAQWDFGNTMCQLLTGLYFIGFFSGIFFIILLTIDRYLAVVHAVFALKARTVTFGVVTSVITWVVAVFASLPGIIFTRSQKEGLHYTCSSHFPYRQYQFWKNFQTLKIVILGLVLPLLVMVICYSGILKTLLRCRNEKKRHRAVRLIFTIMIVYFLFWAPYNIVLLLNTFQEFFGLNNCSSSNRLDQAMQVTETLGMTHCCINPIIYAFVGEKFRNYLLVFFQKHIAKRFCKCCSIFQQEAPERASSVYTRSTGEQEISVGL | not failed
MEFEMLETETNGTIIKVIGVGGAGGNAVQHMINKGVQGVDFVVMNTDAQALSRSRAPSVIQLGNTGLGAGAKPEMGRAAAEEARERIADALRGAHMVFITAGMGGGTGTGAAPVVAQIAKEMGILTVGVVSKPFEFEGGKRMRVAEAGSQQLEDHVDSLIVVLNDKLFEVMGDDAEMDKCFQCADDVLNNAVAGIAEIINVDGLVNVDFEDVKTVMGEQGKAMMGTATVAGVDRARLAAEQAVASPLLEGVDLSGARGVLVNITSSRSLRLSETREVMNTIKSYAADDATVIFGAVYDDAMGDALRVTVVATGLGRAAKKQQSAPMTLLRTGTDNQPISAAPQGYAASHHVSTGDYGAFDTPAVWRNSRETAASHVQALQEKGVDTYDIPAFLRKQAD | not failed
MAKRFMCETLGTACLGLSMALAAPAAFALADIIETPARPTELAPQSLLTDATRAGDRIVSVGERGHVIYSDDQGQSWTQAEVPVAVTLTAVDFGTEQHGWVVGHSGVVLHSSDSGETWELQLDGIQAAELVIASKEDQIAELEERIEQAPEEEKADLEWALDDLFFALENTQADMEIGPVNPFLDVWFEDENHGFVVGAYGMILRTQDGGQTWEDWAPKLDNPTNFHYNSIAEVAGGALVVVGEAGQIHVSVDGGESWEKRESPYDGSLFGVTGTGRVNEVLAFGLRGNTLLSTDLGRSWTMVPNEGGATLNNAAVAEDGRITLVGNGGAVLMSTNNGESFRPYFRNDREGVMGVVPLPGTNLLLVGEGGVEITDARGRNLN | failed
NTDYYGLDYALSFNQVEIEEKRIVIAGSGGIARTVIRYMLDHGAHRVDVLTRNAQNARRNLDIPGIGLHENIDEDYDIYVNCTPLGTLGDGDPFSTVDFRSGRTGIDLVYNPPDTPFLKRMRNAGGRTVSGLDVFIGQGLRTLELVFGIRPDSIFREYAVEALNEIR | failed
MRNLIISAALVAASLFGMSAQAAEPIESGKQYVELTSAVPVAVPGKIEVIELFWYGCPHCYAFEPTINPWVEKLPSDVNFVRIPAMFGGPWDAHGQLFITLDTMGVEHKVHAAVFEAIQKGGKRLTDKNDMADFVATQGVNKDDFLKTFDSFAVKGKIAQYKELAKKYEVTGVPTMIVNGKYRFDLGSAGGPEKTLQVADQLIDKERAAAKAAK | failed
MSIEIWITIIVFFLTMIVIFWRPRGLNEAWPAAIGAGIILITGLVSKPDVIDIVSKIGGASITILATIVMAVILESFGFFHWSAAKLANLAKGSGRRLYWYIQLLCFLMTLLFNNDGSILITTPILILLLKNLQLKPHQQIPYLLSGALIATASSAPIGESNIVNLIALNIVNMTLYMHTAMMFVPATLGLLFMSWLMYSVLKKKLPKKLPVSSYDIEEIFFTKNFHPLKGNNSVDTKQKRTRFMLKVLGFVFLMRCLLFVASFLSIPIEIVAVLGSLVLLIWRWYYLRTNPVDILKKTPWHILIFAFSMYVIIYGLHNAGLTAALVQWLEPIVNQHLLYASFAMGGLVSILSNVFNNHPALMIGTITLTEMGLDPVTLKTIYLANIIGSDIGSLLLPIGTLASLIWMYILKQNKIKVKWKDYLSVSLIVIPLTTVVTLFLLFYWVHLFFAL | failed
MEKMYNVGKIVNTHGLIGEIRVIATTDFPEERFQVGNTVYLFEKNSKKPEKLIIRSHRKHKNFDLLMFEGLTGIHQVERMKEGVLKIKEAQLTDLEENEFYFHEIIGTVVTTDGEELGEITEILTPGANDVWVVKGADKKEKLIPYIADVVKDINTNDKKITIEVMEGLLDLEHHHHHH | failed
MVRANKRNEALRIESALLNKIAMLGTEKTAEAVGVDKSQISRWKRDWIPKFSMLLAVLEWGVVDDDMARLARQVAAILTNKKRPAATERSEQIQMEF | not failed
MELSSSESLGFSKILKERVKVKPMNKYAILAVLLWSTVASAFKLTLSRLDTISMLFYSSLTSTVIFLLANLKDIKTFSIKANLNSVFFGFINPFLYYLVLFSAYSILPAQEAQALNYTWPIILVIFSSAFLGQRLSERDFLGVIIGFLGALVVGTRGNLSSLHFANPMGDLLALCSAIIWAIYWILNLRDPRKAEVKMMWNFIFGFLYISILGVIEGIKFDPYGVLGAIYVGTFEMGLTFLLWLKALESEEAGKVASLIYLTPVLSLLFISIVVGEKILGSTIVGLALILLGIALSRR | failed
